Reference: patent US20140170149A1 (Genmab, published 2014)

Assays:
[1] = biological target: T1, human CD3 protein complex (human, UniProt P07766 23-207; P09693 23-182; P04234 22-171; P20963 22-164); test: flow cytometry on Jurkat cells (CD3-expressing T cell line), MFI (PE) (Example 21)
T1 construct: whole, on cells; also called CD3 on Jurkat cells

[2] = biological target: T2, human epidermal growth factor receptor 2 (HER2) (human, UniProt P04626 23-1255); test: flow cytometry on AU565 cells (high HER2), PE-goat anti-human IgG, MFI; EC50 by non-linear regression (Example 12)
T2 construct: whole, on cells; One entry for endogenous HER2 on tumor cell lines and for the fully human construct hu-HER2 on CHO-S cells; also called ErbB-2; hu-HER2
Procedure: (§1) Binding of HER2 antibodies was detected using a Phycoerythrin (PE)-conjugated goat-anti-human IgG antibody (Jackson). […] EC₅₀ values were determined by means of non-linear regression (sigmoidal dose-response with variable slope) using GraphPad Prism V4.03 software (GraphPad Software, San Diego, Calif., USA).

[3] = biological target: T2, human epidermal growth factor receptor …; test: cell-based or functional assay
[4] = biological target: T2, human epidermal growth factor receptor …; test: flow cytometry on A431 cells (low HER2), PE-goat anti-human IgG, MFI; EC50 by non-linear regression (Example 12)
Procedure: as §1

[5] = biological target: T2, human epidermal growth factor receptor …; test: flow cytometry on AU565 cells (high HER2), PE-goat anti-human IgG, MFI; EC50 by non-linear regression (Example 12); remark: listed apart in the source
Procedure: as §1

[6] = biological target: T2, human epidermal growth factor receptor …; test: flow cytometry on A431 cells (low HER2), PE-goat anti-human IgG, MFI; EC50 by non-linear regression (Example 12); remark: listed apart in the source
Procedure: as §1

[7] = biological target: T2, human epidermal growth factor receptor …; test: as above; remark: listed apart in the source
Procedure: as §1

[8] = biological target: T2, human epidermal growth factor receptor …; test: flow cytometry on AU565 cells (high HER2), PE-goat anti-human IgG, MFI; EC50 by non-linear regression (Example 12); remark: listed apart in the source
Procedure: as §1

T1 sequence (P07766 23-207, form in doubt, chain 1 of 4): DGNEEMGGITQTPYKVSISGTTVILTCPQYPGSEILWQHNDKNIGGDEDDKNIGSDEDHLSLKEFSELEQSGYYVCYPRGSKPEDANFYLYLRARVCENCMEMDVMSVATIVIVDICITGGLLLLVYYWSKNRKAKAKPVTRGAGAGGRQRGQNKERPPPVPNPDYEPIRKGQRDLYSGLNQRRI
T1 sequence (P09693 23-182, form in doubt, chain 2 of 4): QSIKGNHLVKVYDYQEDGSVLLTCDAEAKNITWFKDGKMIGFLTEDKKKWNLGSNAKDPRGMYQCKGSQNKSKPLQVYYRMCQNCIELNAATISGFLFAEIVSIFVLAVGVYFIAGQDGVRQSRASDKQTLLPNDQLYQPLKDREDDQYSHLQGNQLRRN
T1 sequence (P04234 22-171, form in doubt, chain 3 of 4): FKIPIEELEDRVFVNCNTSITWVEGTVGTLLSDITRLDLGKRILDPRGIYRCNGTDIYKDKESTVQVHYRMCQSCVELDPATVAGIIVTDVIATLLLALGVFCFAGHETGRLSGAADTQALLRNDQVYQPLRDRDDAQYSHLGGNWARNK
T1 sequence (P20963 22-164, form in doubt, chain 4 of 4): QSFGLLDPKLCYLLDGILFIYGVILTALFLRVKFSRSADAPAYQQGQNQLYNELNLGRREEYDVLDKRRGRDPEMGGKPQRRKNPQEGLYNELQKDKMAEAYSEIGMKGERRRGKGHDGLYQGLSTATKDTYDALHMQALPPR

Row | EC50 (read off the curve) [1] | EC50 [2] | EC50, fab-CypHer5E internalization assay, AU565 cells [3] | Maximal MFI, fab-CypHer5E internalization assay, AU565 cells [3] | EC50 [4] | EC50 [5] | EC50 [6] | EC50 [7] | EC50 [8] | Binder
1 | – | – | ~0.00968 µg/mL | 138000 MFI | – | 2.29 µg/mL | 0.27 µg/mL | – | – | HER2 HuMab 127 (antibody, V domains shown) VH: EVQLVQSGAEVKKPGESLTISCKGSGYSFSIYWIGWVRQMPGKGLEWMGIIFPGDSDIRYSPSFQGQVTISADKSISTAYLQWSSLKASDTAMYYCARQPGDWSPRHWYFDLWGRGTLVTVSS VL: VIWMTQSPSLLSASTGDRVTISCRMSQGISSYLAWYQQKPGKAPELLIYAASTLQSGVPSRFSGSGSGTDFTLTISYLQSEDFATYYCQQYYSFPLTFGGGTKVEIK
2 | – | 0.915 µg/mL | 0.0352 µg/mL | 81700 MFI | 0.996 µg/mL | – | – | – | – | HER2 HuMab 111 (antibody, V domains shown, also called PC1014-111) VH: QVQLVQSGAEVKKPGSSVKVSCKASGGTFSSYGISWVRQAPGPGLEWMGRIIPILGIANYAQKFQGRVTITADKSTNTAYMELSSLRSEDTAVYYCARDQEYSSNWYYWGQGTLVTVSS VL: not shown
3 | – | – | 0.00715 µg/mL | 60300 MFI | – | – | – | 0.316 µg/mL | 0.578 µg/mL | HER2 HuMab 129 (antibody, V domains shown, also called PC1014-129) VH: QVQLVESGGGVVQPGRSLRLSCAASGFTFSTFAIHWVRQAPGKGLEWVAVISYDGGHKFYADSVKGRFTISRDNSKNTLYLQMNSLRAEDTAMYYCARGLGVWGAFDYWGQGTLVTVSS VL: EIVLTQSPATLSLSPGERATLSCRASQSVSSYLAWYQQKPGQAPRLLIYDASNRATGIPARFSGSGSGTDFTLTISSLEPEDFAVYYCQQRSNWWTFGQGTKVEIK
4 | – | 1.55 µg/mL | 0.0686 µg/mL | 57400 MFI | 1.66 µg/mL | – | – | – | – | HER2 HuMab 106 (antibody, V domains shown) VH: EVQLVQSGAEVKKPGESLKISCKGSGYSFTRYWIGWVRQMPGKGLEWMGIIYPGDSDTRYSPSFQGQVTISADKSISTAYLQWSSLKASDTAMYYCARLTGDRGFDYYSGMDVWGQGTTVTVSS VL: not shown
5 | – | – | – | 92400 MFI | – | – | – | 0.855 µg/mL | 1.3 µg/mL | HER2 HuMab 159 (antibody, V domains shown, also called PC1014-159) VH: EVQLVQSGAEVKKPGESLKISCKGSGYNFTSYWIGWVRQMPGKGLEWMGIIYPGDSDTRYSPSFQGQVTISADKSISTAYLQWSSLKASDTAMYYCARWGTYYDILTGYFNWFDPWGQGTLVTVSS VL: DIQMTQSPSSLSASVGDRVTITCRASQGISSWLAWYQQKPEKAPKSLIYAASSLQSGVPSRFSGSGSGTDFTLTISSLQPEDFATYYCQQYYIYPWTFGQGTKVEIK
6 | ~0.2 µg/mL | – | – | – | – | – | – | – | – | IgG1-hu-CLB-T3/4-F405L × IgG1-HER2-153-K409R (bispecific antibody, Made by 2-MEA-induced Fab-arm exchange; IgG1,κ; also called huCLB-T3/4×HER2 153) heavy 1: not shown VL 1: DIQMTQSPSSLSASVGDRVTITCRASQGISSWLAWYQQKPEKAPKSLIYDASSLQSGVPSRFSGSGYGTDFSLTISSLQPEDFAIYYCQQYKSYPITFGQGTRLEIK heavy 2: not shown VL 2: EIVLTQSPATLSLSPGERATLSCSASSSVTYVHWYQQKPGQAPRLLIYDTSKLASGIPARFSGSGSGTDFTLTISSLEPEDFAVYYCFQGSGYPLTFGSGTKLEMR
7 | – | – | – | – | – | 0.722 µg/mL | 1.14 µg/mL | – | – | HER2 HuMab 050 (antibody, V domains shown, also called PC1014-050) VH: EVQLLESGGGLVQPGGSLRLSCAASGFTFSSYAMNWVRQAPGKGLEWVSAISGRGGTTYYADSVKGRFTISRDNSKNTLYLQMSSLRAEDTAVYYCAKARANWDYFDYWGQGTLVTVSS VL: DIQMTQSPSSVSASVGDRVTITCRASQGISSWLAWYQHKPGKAPKLLIYAASILQSGVPSRFSGSGSGTDFTLTISSLQPEDFATYYCQQANSFPITFGQGTRLEIK
8 | – | – | 0.0138 µg/mL | 135000 MFI | – | 0.336 µg/mL | 0.101 µg/mL | – | – | HER2 HuMab 098 (antibody, V domains shown, also called PC1014-098; TH1014-098) VH: EVQLLESGGGLVQPGGSLRLSCAASGFTFSNYGMSWVRQAPGKGLEWVSAISGSAYSTYYADSVKGRFTISRDNSKNTLWLQMNSLRAEDTAVYYCAKAHYHGSGSYYTLFDYWGQGTLVTVSS VL: DIQMTQSPSSLSASVGDRVTITCRASQGISSWLAWYQQKPEKAPKSLIYAASSLQSGVPSRFSGSGSGTDFTLTISSLQPEDFATYYCQQYNSYPYTFGQGTKLEIK
9 | – | – | 0.0114 µg/mL | 112000 MFI | – | – | – | 0.068 µg/mL | 0.911 µg/mL | HER2 HuMab 132 (antibody, V domains shown, also called PC1014-132) VH: QVQLVQSGAEVKKPGASVKVSCKASGYTFTSYGISWVRQAPGQGLEWMGWISAYNGNSNYVQKFQGRVTMTTDTTTSTAYMELRSLTSDDTAVYYCAREYSYDSGTYFYYGMDVWGQGTTVTVSS VL: EIVLTQSPATLSLSPGERATLSCRASQSVSSYLAWYQQKPGQAPRLLIYDASNRATGIPARFSGSGSGTDFTLTISSLEPEDFAVYYCQQRSNWPMYTFGQGTKLEIK

More lines, now with the values behind:

Row | Binder | EC50 (read off the curve) [1] | EC50 [2] | EC50, fab-CypHer5E internalization assay, AU565 cells [3] | Maximal MFI, fab-CypHer5E internalization assay, AU565 cells [3] | EC50 [4] | EC50 [5] | EC50 [6] | EC50 [7] | EC50 [8]
10 | IgG1-hu-CLB-T3/4-F405L (antibody, V domains shown, Expressed as IgG1,κ with F405L) VH: EVQLVESGGGLVKPGGSLRLSCAASGFTFSSYGMFWVRQAPGKGLEWVATISRYSRYIYYPDSVKGRFTISRDNAKNSLYLQMNSLRAEDTAVYYCARRPLYGSSPDYWGQGTLVTVSS VL: EIVLTQSPATLSLSPGERATLSCSASSSVTYVHWYQQKPGQAPRLLIYDTSKLASGIPARFSGSGSGTDFTLTISSLEPEDFAVYYCFQGSGYPLTFGSGTKLEMR | ~0.03 µg/mL | – | – | – | – | – | – | – | –
11 | HER2 HuMab 060 (antibody, V domains shown, also called PC1014-060) VH: EVQLVQSGAEVKKPGESLKISCKGSGYRFTSYWIGWVRQMPGKGLEWMGSIYPGDSYTRNSPSFQGQVTISADKSIATAYLQWNSLKASDTAMYYCARHAGDFYYFDGLDVWGQGTTVTVSS VL: not shown | – | 2.68 µg/mL | 0.0362 µg/mL | 68200 MFI | 1.98 µg/mL | – | – | – | –
12 | HER2 HuMab 084 (antibody, V domains shown, also called PC1014-084) VH: QVQLVQSGAEVKKPGSSVKVSCKASGGTFRTYAINWVRQAPGQGLEWMGRINTVLGIVNHAQKFQGRVTITADKSTNTAYMELNSLRSEDTAVYYCAREKGVDYYYGIEVWGQGTTVTVSS VL: DIQMTQSPSSVSASVGDRVTITCRASQGISSWLAWYQHKPGKAPKLLIYVASTLQSGVPSRFSGSGSGTDFTLTISSLQPEDFATYYCQQANSFPLTFGGGTKVEIK | – | – | 0.0305 µg/mL | 71100 MFI | – | 0.491 µg/mL | 0.498 µg/mL | – | –
13 | HER2 HuMab 005 (antibody, human IgG1, V domains shown, Human IgG1,κ; also called PC1014-005; TH1014-005) VH: EVQLVQSGAEVKKPGESLKISCKASGYSFHFYWIGWVRQMPGKGLEWMGSIYPGDSDTRYRPSFQGQVTISADKSISTAYLQWTSLKASDTAIYYCARQRGDYYYFYGMDVWGQGTTVTVSS VL: not shown | – | 0.818 µg/mL | 0.0214 µg/mL | 95100 MFI | 0.789 µg/mL | – | – | – | –
14 | HER2 HuMab 025 (antibody, V domains shown, also called PC1014-025; TH1014-025) VH: QVQLQQWGAGLLKPSETLSLTCAVYGGSFSDYYWNWIRQPPGKGLEWIGEIHHSGSTNYNPSLKSRVTISVDTSKNQFSLKLSSVTAADTAVYYCARGYYDSGVYYFDYWAQGTLVTVSS VL: DIQMTQSPSSLSASVGDRVTITCRASQGISRWLAWYQQKPEKAPKSLIYAASSLRSGVPSRFSGSGSGTDFTLTISSLQPEDFATYYCQQYNSYPITFGQGTRLEIK | – | – | 0.0301 µg/mL | 63400 MFI | – | 0.58 µg/mL | 0.128 µg/mL | – | –
15 | HER2 HuMab 091 (antibody, V domains shown, also called PC1014-091) VH: QVQLQQWGAGLLKPSETLSLTCAVSGGSFSGYYWTWIRQPPGKGLEWIGEIYHSGDTNYNPSLKSRVTISVDTSKNQFSLKLYSVTAADTAVYYCARLYFGSGIYYLDYWGQGTLVTVSS VL: DIQMTQSPSSLSASVGDRVTITCRASQGISSWLVWYQQKPEKAPKSLIYAASSLQSGVPSRFSGSGSGTDFTLTISSLQPEDFATYYCQQYNSFPPTFGQGTKVEIK | – | – | 0.033 µg/mL | 50700 MFI | – | 0.965 µg/mL | 0.633 µg/mL | – | –
16 | HER2 HuMab 059 (antibody, V domains shown, also called PC1014-059) VH: QVQLVQSGAEVKKPGASVRVPCKASGYTFTRYGISWVRQAPGQGLEWMGWISAYNGKTYYAQKLQGRVTMTTDTSTSTAYMELRSLRSDDTAVYYCARSPLLWFEELYFDYWGQGTLVTVSS VL: EIVLTQSPGTLSLSPGERATLSCRASQSVSSTYLAWYQQKPGQAPRLLIYGASSRATGIPDRFSGSGSGTDFTLTISRLEPEDFAVYYCQQYGTSLFTFGPGTKVDIK | – | 1.31 µg/mL | 0.0148 µg/mL | 77100 MFI | 0.213 µg/mL | – | – | – | –
17 | HER2 HuMab 169 (antibody, V domains shown) VH: QVQLVQSGAEVKKPGASVKVSCKASGYTFTNYGISWVRQAPGQGLEWMGWLSAYSGNTIYAQKLQGRVTMTTDTSTTTAYMELRSLRSDDTAVYYCARDRIVVRPDYFDYWGQGTLVTVSS VL: EIVLTQSPATLSLSPGERATLSCRASQSVSSYLAWYQQKPGQAPRLLIYDASNRATGIPARFSGSGSGTDFTLTISSLEPEDFAVYYCQQRSNWPRTFGQGTKVEIK | – | – | – | 38800 MFI | – | – | – | 0.415 µg/mL | 0.908 µg/mL
